Experimental data taken from the Human Domainome abundance scans (Beltran et al. 2025).
± gives the uncertainty stated by the source.

B1: Tripartite motif-containing protein 49C, residues 87 to 133; numbered along this chain, P0CI26 (parent)
chain: SSEEQMCGTHRETKKIFCEVDRSLLCLLCSSSQEHRYHRHRPIEWAA

Variants of: B1
Experiment: abundance fitness (aPCA) (normalised: wild type 0, dead -1); higher = more abundant; growth selection in yeast, the domain comes from the species named
Conditions: Homo sapiens
Work on SSEEQMCGTHRETKKITCEVDRSLLCLLCSSSQEHRYHRHRPIEWAA [F17T] yielded an abundance fitness of -0.443 ± 0.12.
Variant SSEEQMCGTHRETKKIQCEVDRSLLCLLCSSSQEHRYHRHRPIEWAA [F17Q] has an abundance fitness of -0.653 ± 0.27.
Variant SSEEQMCGTHRETKKIKCEVDRSLLCLLCSSSQEHRYHRHRPIEWAA [F17K] has an abundance fitness of -0.274 ± 0.13.
Variant SSEEQMCGTHRHTKKIFCEVDRSLLCLLCSSSQEHRYHRHRPIEWAA [E12H] has an abundance fitness of -0.228 ± 0.24.
Variant SSEEQMCGTHRVTKKIFCEVDRSLLCLLCSSSQEHRYHRHRPIEWAA [E12V] has an abundance fitness of -0.072 ± 0.088.
Work on SSEEQMCGTHRPTKKIFCEVDRSLLCLLCSSSQEHRYHRHRPIEWAA [E12P] yielded an abundance fitness of -0.671 ± 0.11.
In the case of SSEEQMCGTHRETKKIFCEVDRSLLCLLCSSSQEHRKHRHRPIEWAA [Y37K], the abundance fitness is reported as 0.058 ± 0.1.
Variant SSEEQMCGTHRETKKIFCEVDRSLLCLLCSSSQEHRWHRHRPIEWAA [Y37W] has an abundance fitness of -0.218 ± 0.12.
Work on SSEEQMCGTHRETKKIFCEVDRSLLCLLCSSSQEHRIHRHRPIEWAA [Y37I] yielded an abundance fitness of -0.386 ± 0.1.
SSEPQMCGTHRETKKIFCEVDRSLLCLLCSSSQEHRYHRHRPIEWAA [E4P] showed an abundance fitness of -0.196 ± 0.12.
SSEQQMCGTHRETKKIFCEVDRSLLCLLCSSSQEHRYHRHRPIEWAA [E4Q] gave an abundance fitness of -0.726 ± 0.23.
SSERQMCGTHRETKKIFCEVDRSLLCLLCSSSQEHRYHRHRPIEWAA [E4R] showed an abundance fitness of -0.252 ± 0.081.
SLEEQMCGTHRETKKIFCEVDRSLLCLLCSSSQEHRYHRHRPIEWAA [S2L] gave an abundance fitness of -0.204 ± 0.12.
In the case of SSEEQMCGTHRETKIIFCEVDRSLLCLLCSSSQEHRYHRHRPIEWAA [K15I], the abundance fitness is reported as -0.327 ± 0.14.
SSEEQMCGTHRETKQIFCEVDRSLLCLLCSSSQEHRYHRHRPIEWAA [K15Q] gave an abundance fitness of -0.264 ± 0.13.
SSEEQMCGTHRETKKIFCEVDRSLLCLLCSSSQEHRYHRHRPIAWAA [E44A] gave an abundance fitness of -0.411 ± 0.099.
With SSEEQMCGTHRETKKIFCEVDRSLLCLLCSSSQEHRYHRHRPIQWAA [E44Q] the abundance fitness was -0.489 ± 0.16.
In the case of SSEEQMCGTHRETKKIFCEVDRSLLCLLCSSSQEHRYHRHRPIFWAA [E44F], the abundance fitness is reported as -0.82 ± 0.13.
LSEEQMCGTHRETKKIFCEVDRSLLCLLCSSSQEHRYHRHRPIEWAA [S1L] gave an abundance fitness of -0.156 ± 0.15.
Variant SSEEQMCGTHRETKKIFCEVDRSLLCLDCSSSQEHRYHRHRPIEWAA [L28D] has an abundance fitness of -0.17 ± 0.27.
SSEEQMCGTHRETKKIFCEVDRSLLCLPCSSSQEHRYHRHRPIEWAA [L28P] gave an abundance fitness of -0.095 ± 0.14.
In the case of SSEEQMCGTHRETKKIFCEVDVSLLCLLCSSSQEHRYHRHRPIEWAA [R22V], the abundance fitness is reported as -0.575 ± 0.098.
SSEEQMCGTHRETKKIFCEVDASLLCLLCSSSQEHRYHRHRPIEWAA [R22A] showed an abundance fitness of -0.267 ± 0.11.
For SSEEQMCGTHRETKKIFCERDRSLLCLLCSSSQEHRYHRHRPIEWAA [V20R], the abundance fitness was -0.026 ± 0.078.
Work on SSEEQMCGTHRETKKIFCEVDRSLLCLLCSSSQEHRYHRHRPIEWAP [A47P] yielded an abundance fitness of 0.019 ± 0.13.
With SSEEQMCGTHRETKKIFCEVDRSLLCLLCSSSQEHRYHRHRPIEWAW [A47W] the abundance fitness was -0.144 ± 0.33.
In the case of SSEEQMCGTHRETKKIFCEVDRSLLCLLCSSSQEHRYHRHRPIEWAN [A47N], the abundance fitness is reported as -0.007 ± 0.28.
Variant SSEEQMCGTHRETKKIFCEVDRCLLCLLCSSSQEHRYHRHRPIEWAA [S23C] has an abundance fitness of -0.055 ± 0.13.
SSEEQMCGTHRETKKIFCEVDRPLLCLLCSSSQEHRYHRHRPIEWAA [S23P] gave an abundance fitness of -0.686 ± 0.17.
Work on SSEEQMCGTHRETKKIFCEVDRALLCLLCSSSQEHRYHRHRPIEWAA [S23A] yielded an abundance fitness of -0.035 ± 0.087.
SSEEQMCGTHRETKKIFCEVDRSLLCTLCSSSQEHRYHRHRPIEWAA [L27T] showed an abundance fitness of 0.106 ± 0.081.
For SSEEQMCGTHRETKKIFCEVDRSLLCFLCSSSQEHRYHRHRPIEWAA [L27F], the abundance fitness was -0.015 ± 0.083.
Work on SSEEQMCGTHEETKKIFCEVDRSLLCLLCSSSQEHRYHRHRPIEWAA [R11E] yielded an abundance fitness of -0.683 ± 0.14.
For SSEEQMCGTHTETKKIFCEVDRSLLCLLCSSSQEHRYHRHRPIEWAA [R11T], the abundance fitness was -0.135 ± 0.12.
In the case of SSEEQMCGTHKETKKIFCEVDRSLLCLLCSSSQEHRYHRHRPIEWAA [R11K], the abundance fitness is reported as 0.073 ± 0.12.
Variant SSEEQMCGTHIETKKIFCEVDRSLLCLLCSSSQEHRYHRHRPIEWAA [R11I] has an abundance fitness of -0.398 ± 0.23.
Variant SSEEQMCGTHNETKKIFCEVDRSLLCLLCSSSQEHRYHRHRPIEWAA [R11N] has an abundance fitness of -0.049 ± 0.17.
Work on SSEEQMCGTHRETKKIFCEVDRSTLCLLCSSSQEHRYHRHRPIEWAA [L24T] yielded an abundance fitness of -0.099 ± 0.15.
Work on SSEEQMCGTHRETKKIFCEVDRSSLCLLCSSSQEHRYHRHRPIEWAA [L24S] yielded an abundance fitness of -0.306 ± 0.12.
In the case of SSEEQMCGTHRETKKIFCEVDRSELCLLCSSSQEHRYHRHRPIEWAA [L24E], the abundance fitness is reported as -0.106 ± 0.12.
SSEEQMCGTHRETKKIFCEVDRSALCLLCSSSQEHRYHRHRPIEWAA [L24A] gave an abundance fitness of -0.044 ± 0.09.
For SSEEQMCGTHRETKKIFCEVDRSNLCLLCSSSQEHRYHRHRPIEWAA [L24N], the abundance fitness was -0.212 ± 0.17.
Variant SSEEQMCGTHRETKKIFCEVDRSLLCLLCSWSQEHRYHRHRPIEWAA [S31W] has an abundance fitness of 0.015 ± 0.093.
Work on SSEEQMCGTHRETKKIFCEVDRSLLCLLCSKSQEHRYHRHRPIEWAA [S31K] yielded an abundance fitness of -0.286 ± 0.12.
Variant SSEEQMCVTHRETKKIFCEVDRSLLCLLCSSSQEHRYHRHRPIEWAA [G8V] has an abundance fitness of -0.02 ± 0.085.
Work on SSEEQMCYTHRETKKIFCEVDRSLLCLLCSSSQEHRYHRHRPIEWAA [G8Y] yielded an abundance fitness of -0.082 ± 0.15.
For SSEEQMCGTHRETKKIFCEVDRSLLCLLCSSSQEHRYHGHRPIEWAA [R39G], the abundance fitness was -0.253 ± 0.072.
Work on SSEEQMCGTHRETKKIFCEVDRSLLCLLCSSSQEHRYHTHRPIEWAA [R39T] yielded an abundance fitness of 0.02 ± 0.091.
SSEEQMCGTHRETKKIFCEVDRSLLCLLCSSSQEHRYHHHRPIEWAA [R39H] gave an abundance fitness of -0.131 ± 0.15.
SSEEQMCGTHRETKKIFCEVDRSLLCLLCSSSQEHRYHIHRPIEWAA [R39I] gave an abundance fitness of 0.162 ± 0.14.
With SSEEQMCGTHREYKKIFCEVDRSLLCLLCSSSQEHRYHRHRPIEWAA [T13Y] the abundance fitness was -0.277 ± 0.17.
In the case of SSEEQMCGTHREMKKIFCEVDRSLLCLLCSSSQEHRYHRHRPIEWAA [T13M], the abundance fitness is reported as 0.242 ± 0.12.
With SSEEQMCGTHREEKKIFCEVDRSLLCLLCSSSQEHRYHRHRPIEWAA [T13E] the abundance fitness was -0.028 ± 0.14.
In the case of SSEEQMCGTHRETKKIFCEVDRSLLCLLCSSRQEHRYHRHRPIEWAA [S32R], the abundance fitness is reported as 0.017 ± 0.096.
SSEEQMCGTHRETKKIFCEVDRSLLCLLVSSSQEHRYHRHRPIEWAA [C29V] showed an abundance fitness of -0.959 ± 0.12.
